Measured values taken from the supplement of paper PMC9170038.

Columns and labels:
[1] = system: MS2 coat protein; assay: apparent KD of MS2 coat protein, switch ON state; designed switch direction (-1 OFF switch, 1 ON switch): 1; higher = weaker reporter binding; settings: FMN input: 0 or 200 uM; Eterna round: R93 (includes R88 designs)
Summary of the method: (§1)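 For every design, apparent KD is the median of normalised binding-curve fits from its clusters. The RNA switches were transcribed on-chip from Illumina sequencing clusters and titrated with SNAP-549-labelled MS2 coat protein (twofold steps, 0.7 or 1.5 nM to 3 µM; 0.8–1.5 h to 10–20 min per step). Titrations used 100 mM Tris-HCl pH 7.5, 80 mM KCl, 4 mM MgCl2, without or with constant ligand.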

[2] = system: MS2 coat protein; assay: apparent KD of MS2 coat protein, switch OFF state (with FMN for OFF switches, without FMN for ON switches); designed switch direction (-1 OFF switch, 1 ON switch): 1; higher = weaker reporter binding; settings: FMN input: 0 or 200 uM; Eterna round: R93 (includes R88 designs)
Summary of the method: as §1

For “AAUAAGACUAGCAAGGAUAUCGAAAACGAGACAUGAGGAUCACCCAUGUAACGAGUAUAAGUAUACGAGAAGGUGCAGGGUGAAA [JR_SS002_Sub303]”, which “apparent KD of MS2 coat protein” value [1] is on record?
The value was 75 nM.

And the “apparent KD of MS2 coat protein” value [2]?
Its value is 86.7 nM.

How did the “apparent KD of MS2 coat protein” value [1] turn out when “AAAAUAAAAUAAAAGGAUAUAAAAAAAUAUACAUGAGGAUCACCCAUGUAUAUAAAAAUAAAAUAAAAGAAGGAAUAAAAAUAAA [SS2 506: MS2 6]” was run?
Its value is 10.3 nM.

What about the “apparent KD of MS2 coat protein” value [2] of the same sequence?
Its value is 11.1 nM.

Which results are given for “AGGAAACAUGAGGAUCACCCAUGUAAAAAUAUGGGAGGAUAUACAAAGACGAAAGUAAGAGUAGAAGGCCUAAAAG [Garnet 16]”?
apparent KD of MS2 coat protein [1]: 31.3 nM; apparent KD of MS2 coat protein [2]: 150 nM

What does the source list for “AAAAGACAUGAGGAUCACCCAUGUCGAAAGACAUGAGGAUAUGUACAGACUUCGGUCUGUACAGAAGGCAUGAAAA [SS1 - 1067]”?
apparent KD of MS2 coat protein [1]: 17.1 nM; apparent KD of MS2 coat protein [2]: 68.7 nM

What does the source list for “CGAAGACAUGAGGAUCACCCAUGUGGGAUUAUGGGAGGAUAUACAAAGACGAGAGUCAGAGUAGAAGGCCUAGGAG [salish99-ss1-126(!)]”?
apparent KD of MS2 coat protein [1]: 28.7 nM; apparent KD of MS2 coat protein [2]: 47.1 nM

What does the source list for “UACAGGAAGAGAGAGGAUAUCCAAAGGAAAACAUGAGGAUCACCCAUGUAAAAGGUAGGAAAUUGGGAGAAGGCUCAAGAGAGAG [salish99-ss2-090]”?
apparent KD of MS2 coat protein [1]: 21 nM; apparent KD of MS2 coat protein [2]: 32 nM

What does the source list for “AGGAAACAUGAGGAUCACCCAUGUCUAAAUAUGGGAGGAUAUGCACAAAAGGAAAUAACUGCAGAAGGCCUAAAAA [62%, Redo, 4]”?
apparent KD of MS2 coat protein [1]: 17.3 nM; apparent KD of MS2 coat protein [2]: 103 nM

Which results are given for “GAAAAACAUGAGGAUCACCCAUGUAGAAAUAUGGGAGGAUAUUCAAAGACGAAAGUCAAAGAAGAAGGCCUAAAAG [Mat - Same State 1 - Eli mod - 36]”?
apparent KD of MS2 coat protein [1]: 29.1 nM; apparent KD of MS2 coat protein [2]: 113 nM

Which results are given for “ACCAGGAAGAGAGAGGAUAUCCAAAGGAAAACAUGAGGAUCACCCAUGUAAAAGGUAGGAAAUUGGGAGAAGGCUCAAGAGAGAG [salish99-ss2-101]”?
apparent KD of MS2 coat protein [1]: 26.7 nM; apparent KD of MS2 coat protein [2]: 30.1 nM

What does the source list for “GAAAAACAUGAGGAUCACCCAUGUGAGAAUAUGGGAGGAUAUACAAAGACGAAAGUCAAAGUAGAAGGCCUAAAAG [Mat - Same State 1 - Eli mod - D6]”?
apparent KD of MS2 coat protein [1]: 27.6 nM; apparent KD of MS2 coat protein [2]: 94.5 nM

What does the source list for “GAAAAACAUGAGGAUCACCCAUGUGUAAACAUGGGAGGAUAUACAAAGACGUAAGUCAAAGUAGAAGGCCUAAGAG [Garnet 37]”?
apparent KD of MS2 coat protein [1]: 128 nM; apparent KD of MS2 coat protein [2]: 15.3 nM

“GAAAAACAUGAGGAUCACCCAUGUAGAAAUAUGGGAGGAUAUACGAAGACGAAAGUCAAAGUAGAAGGCCUAAAGA [Mat - Same State 1 - Eli mod - D103]” was tested. Which “apparent KD of MS2 coat protein” value [1] did it give?
The value was 26.5 nM.

What about the “apparent KD of MS2 coat protein” value [2] of the same sequence?
Its value is 70.4 nM.

For “AAAAAAAAUGUGUAGGAUAUCAGUAAAAAUACAUGAGGAUCACCCAUGUUCAAAAAAAAAAAAACUGAGAAGGACACGGGAAGUCC [Design 2]”, which “apparent KD of MS2 coat protein” value [1] is on record?
The value was 20.5 nM.

And the “apparent KD of MS2 coat protein” value [2]?
Its value is 18.5 nM.

How did the “apparent KD of MS2 coat protein” value [1] turn out when “GGGAGACAUGAGGAUCACCCAUGUGAGAAGAGGCGAGGAUAUCGAAAGAAAGAAGAGAAACGAGAAGGCGCGAGCG [salish99-SS1-060]” was run?
Its value is 32.5 nM.

What about the “apparent KD of MS2 coat protein” value [2] of the same sequence?
Its value is 86.7 nM.

Which “apparent KD of MS2 coat protein” value [1] does the source give for “AAAAGACAUGAGGAUCACCCAUGUAGGCCAAAGCAAGGAUAUAGGCCACAGGGACGUGGACUAGAAGGUGCACGGC [Xereedes]” here?
Its value is 21.9 nM.

And the “apparent KD of MS2 coat protein” value [2]?
The value was 107 nM.

How did the “apparent KD of MS2 coat protein” value [1] turn out when “AUAAAACAUGAGGAUCACCCAUGUGAAAACGUGGGAGGAUAUACGUAGACGAAAGUCGACGUAGAAGGCCUAAAAG [Same State 1.4n.1 (Mat - Mod of Eli - )]” was run?
Its value is 119 nM.

And the “apparent KD of MS2 coat protein” value [2]?
The value was 197 nM.

With “AAAAAACAUGAGGAUCACCCAUGUCUUUUGACAUGAGGAUAUGUACAGACUUCGGUCUGUACAGAAGGCAUGAAAA [SS1 - 1029]” as the sequence, how does the “apparent KD of MS2 coat protein” value [1] read?
The value was 48.4 nM.

And the “apparent KD of MS2 coat protein” value [2]?
Its value is 432 nM.

What does the source list for “AAAUAAAUGACUAAGGAUAUUUCAGAGAAAACAUGAGGAUCACCCAUGUAAUAAUAAAAAGGGUGAGAGAAGGUAGUCAACAAAC [74%, More Paria 4]”?
apparent KD of MS2 coat protein [1]: 13.8 nM; apparent KD of MS2 coat protein [2]: 25.7 nM
